According to IntAct's records for PubMed 21423209:

B1: Catenin beta-1 (Homo sapiens), P35222 (parent)
chain: MATQADLMELDMAMEPDRKAAVSHWQQQSYLDSGIHSGATTTAPSLSGKGNPEEEDVDTSQVLYEWEQGFSQSFTQEQVADIDGQYAMTRAQRVRAAMFPETLDEGMQIPSTQFDAAHPTNVQRLAEPSQMLKHAVVNLINYQDDAELATRAIPELTKLLNDEDQVVVNKAAVMVHQLSKKEASRHAIMRSPQMVSAIVRTMQNTNDVETARCTAGTLHNLSHHREGLLAIFKSGGIPALVKMLGSPVDSVLFYAITTLHNLLLHQEGAKMAVRLAGGLQKMVALLNKTNVKFLAITTDCLQILAYGNQESKLIILASGGPQALVNIMRTYTYEKLLWTTSRVLKVLSVCSSNKPAIVEAGGMQALGLHLTDPSQRLVQNCLWTLRNLSDAATKQEGMEGLLGTLVQLLGSDDINVVTCAAGILSNLTCNNYKNKMMVCQVGGIEALVRTVLRAGDREDITEPAICALRHLTSRHQEAEMAQNAVRLHYGLPVVVKLLHPPSHWPLIKATVGLIRNLALCPANHAPLREQGAIPRLVQLLVRAHQDTQRRTSMGGTQQQFVEGVRMEEIVEGCTGALHILARDVHNRIVIRGLNTIPLFVQLLYSPIENIQRVAAGVLCELAQDKEAAEAIEAEGATAPLTELLHSRNEGVATYAAAVLFRMSEDKPQDYKKRLSVELTSSLFRTEPMAWNETADLGLDIGAQGEPLGYRQDDPSYRSFHSGGYGQDALGMDPMMEHEMGGHHPGADYPVDGLPDLGHAQDLMDGLPPGDSNQLAWFDTDL

Variants of: B1
Conditions: with ron_mouse Mst1r

| Variant | effect of a mutation on the interaction |
| --- | --- |
| Y654F;Y670F | disrupting interaction |
